Residue numbers refer to the chain shown, from its start. Names and notes keep the numbering of the source. “Also recorded” adds a separate entry of the source. Each block holds one molecule with its values, some of them ahead of it.
Columns and labels:
[1] = biological target: intact Tlr4 protein, endogenous in RAW 264.7 macrophages (mouse) (UniProt Q9QUK6); assay: cell-based or functional assay
[2] = biological target: flag-tagged Tlr4^Lps-d, residues 22-835 (P712H), expressed in RAW 264.7 cells (mouse) (UniProt Q9QUK6); assay: saturation isotherm of 125I-M2 on transfected RAW 264.7 cells, nonlinear regression
[3] = biological target: flag-tagged Tlr4^Lps-d, residues 22-835 (P712H), expressed in RAW 264.7 cells (mouse) (UniProt Q9QUK6); assay: saturation isotherm of 125I-M2 (50 ng/ml to 20 ug/ml) on transfected RAW 264.7 cells
[4] = biological target: flag-tagged Tlr4^Lps-n cytoplasmic domain construct, residues 630-835 (mouse) (UniProt Q9QUK6); assay: equilibrium specific binding of M2 at a fixed concentration to RAW 264.7 clones, mean of 7 clones
[5] = biological target: flag-tagged Tlr4^Lps-d cytoplasmic domain construct, residues 630-835 (P712H) (mouse) (UniProt Q9QUK6); assay: equilibrium specific binding of M2 at a fixed concentration to RAW 264.7 clones, mean of 8 clones
[6] = biological target: flag-tagged Tlr4 ectodomain construct, residues 22-660 (no cytoplasmic domain) (mouse) (UniProt Q9QUK6); assay: equilibrium specific binding of M2 at a fixed concentration to RAW 264.7 clones, mean of 9 clones
[7] = biological target: flag-tagged Tlr4^Lps-d, residues 22-835 (P712H), expressed in RAW 264.7 cells (mouse) (UniProt Q9QUK6); assay: equilibrium specific binding of M2 at a fixed concentration to RAW 264.7 clones, mean of 10 clones
[8] = biological target: flag-tagged Tlr4^Lps-n, residues 22-835, expressed in RAW 264.7 cells (mouse) (UniProt Q9QUK6); assay: as above
[9] = test system: RAW 264.7 cells; assay: LPS-induced TNF production (EC50 shift) in RAW 264.7 clones expressing Tlr4 constructs, L-929 cytotoxicity assay; assay type: cell-based, murine; conditions: for rightward EC50 shift (inhibition of LPS signaling): membrane-associated cytoplasmic domain constructs lacking the entire ectodomain; for leftward shift of the LPS EC50 curve (augmentation of the LPS response): over-expression in RAW 264.7, TNF production; for effect on LPS signaling (in words): over-expression of truncated constructs in RAW 264.7 cells
Experimental: FIG. 15C. Composite analysis of the shift in EC50 caused by expression of Tlr4^Lps-n and Tlr4^Lps-d in RAW 264.7 cells. Each point represents an EC50 determination performed on ten independent clones at the stated LPS concentration. For each clone, four replicate assays were performed at each concentration. […] Transfected macrophages were plated in 24 well plates at a density of 5×10^5 cells per well, and covered with 1.0 ml of DMEM supplemented with 10% FBS. LPS was added to each well at the concentration indicated. After 15 hours of incubation the medium was harvested, and TNF concentration was assayed in the standard L-929 cytotoxicity system^36, using cycloheximide at a concentration of 100·g/ml to potentiate killing. After 15 hours of exposure to diluted macrophage medium or to mouse TNF applied at a range of 8 standard concentrations, the number of viable cells was determined by staining with crystal violet. A standard curve relating % cytotoxicity to TNF concentration (not shown) was generated using Prism 3.0, and was based on an assumption of sigmoidicity. Variance among replicate samples was typically beneath 5% of the mean, and departures of individual samples from the sigmoid plot were typically smaller still. Linear estimates of TNF concentration in unknown samples were based on non-linear interpolation from the standard curve (also performed using Prism 3.0). The curves shown were generated assuming sigmoidicity of response with variable slope for each curve, and further assigning a maximum response value of 1760 pg TNF, which yielded an optimal fit for the most responsive curve. Error bars indicate standard deviation among clones at each LPS concentration. Log EC50 values and standard error values are shown in the inset table.
FIG. 15D. Shifts of the log EC50, determined for individual clones. A more conservative approach, in which log EC50 values were determined for individual clones transfected with vector alone, or with the Tlr4^Lps-n or Tlr4^Lps-d constructs. The log EC50 data were then represented as a scatter plot, in which each point represents the log EC50 determination of a single clone (confidence limits not shown for the sake of simplicity), and is derived from 24 separate TNF assays performed on samples stimulated over a 10^4-fold range of LPS concentration (100 pg/ml to 1·g/ml, as well as an unstimulated control). In most instances, two determinations of log EC50 were made independently for each clone. The mean and standard error of each cluster is shown in the inset, together with p values defining the likelihood that the EC50 displacements are attributable to chance. Data were analyzed by means of a one-tailed t test, using Welch's correction for unequal variance.
In order to directly examine the role of Tlr4 as a transducer of the LPS signal in macrophages, the inventors expressed the normal mouse protein—and various mutant forms—in RAW 264.7 macrophages have been expressed (FIG. 14; Table VIII). These cells of murine origin are highly responsive to LPS, and are known to express the Tlr4 mRNA (Poltorak et al, 1998b). Unlike cell lines of non-myeloid origin (i.e., 293 cells or CHO cells), they express all proteins required for the elicitation of a biologically relevant response to LPS (e.g., TNF production). As such, they may be used to determine whether Tlr4 is a limiting factor in the initiation of an LPS signal, and to examine the mechanism by which the Tlr4^Lps-d allele exerts its dominant inhibitory effect on signaling. This was determined by performing more than 3,000 assays of TNF production, induced over an extensive range of LPS concentrations in numerous stable clones, since individual clones show considerable background variability in LPS responses. Moreover, because culture conditions can affect the sensitivity of the TNF assay and production of TNF by LPS-stimulated cells, all transfected and control clones were induced and assayed in parallel. […]

shift of the LPS EC50 for TNF production in RAW 264.7 clones [1]: 39 fold
Molecule: flag-tagged Tlr4^Lps-d cytoplasmic domain construct, residues 630-835 (P712H) (from UniProt Q9QUK6 630-835) (receptor)

shift of the LPS EC50 for TNF production in RAW 264.7 clones [1]: 4 fold
Molecule: flag-tagged Tlr4^Lps-n cytoplasmic domain construct, residues 630-835 (from UniProt Q9QUK6 630-835) (receptor)

binding sites per cell (binding sites per cell) [2]: 28100 | % saturation of the surface receptor at the highest antibody concentration [3]: 56.4% | Copies/cell [4]: 12000 copies/cell | Copies/cell [5]: 9900 copies/cell | Copies/cell [6]: 14000 copies/cell | Copies/cell [7]: 20000 copies/cell | Copies/cell [8]: 21000 copies/cell
Molecule: monoclonal antibody M2 (obtained from Sigma)

B1: Tlr4^Lps-d Cyt. Dom.: membrane-associated Tlr4 cytoplasmic domain with P712H, residues 630–835, with flag peptide, lacking the ectodomain (protein)
chain: TIISVSVVSVIVVSTVAFLIYHFYFHLILIAGCKKYSRGESIYDAFVIYSSQNEDWVRNELVKNLEEGVPRFHLCLHYRDFIHGVAIAANIIQEGFHKSRKVIVVVSRHFIQSRWCIFEYEIAQTWQFLSSRSGIIFIVLEKVEKSLLRQQVELYRLLSRNTYLEWEDNPLGRHIFWRRLKNALLDGKASNPEQTAEEEQETATWT
modifications: left off: small tags and cut ends
notes: membrane-associated Tlr4 cytoplasmic domain with P712H, residues 630–835, with flag peptide, lacking the ectodomain
rightward EC50 shift (inhibition of LPS signaling) [9]: 39 fold

B2: Tlr4^Lps-n Cyt. Dom.: membrane-associated Tlr4 cytoplasmic domain, normal sequence, residues 630–835, with flag peptide, lacking the ectodomain (protein)
chain: B1 chain with H83P
modifications: left off: small tags and cut ends
rightward EC50 shift (inhibition of LPS signaling) [9]: 4 fold

B3: Tlr4^Lps-n: flag-tagged full-length normal mouse Tlr4, residues 22–835, expressed in RAW 264.7 cells (protein)
chain: PGSLNPCIEVVPNITYQCMDQKLSKVPDDIPSSTKNIDLSFNPLKILKSYSFSNFSELQWLDLSRCEIETIEDKAWHGLHHLSNLILTGNPIQSFSPGSFSGLTSLENLVAVETKLASLESFPIGQLITLKKLNVAHNFIHSCKLPAYFSNLTNLVHVDLSYNYIQTITVNDLQFLRENPQVNLSLDMSLNPIDFIQDQAFQGIKLHELTLRGNFNSSNIMKTCLQNLAGLHVHRLILGEFKDERNLEIFEPSIMEGLCDVTIDEFRLTYTNDFSDDIVKFHCLANVSAMSLAGVSIKYLEDVPKHFKWQSLSIIRCQLKQFPTLDLPFLKSLTLTMNKGSISFKKVALPSLSYLDLSRNALSFSGCCSYSDLGTNSLRHLDLSFNGAIIMSANFMGLEELQHLDFQHSTLKRVTEFSAFLSLEKLLYLDISYTNTKIDFDGIFLGLTSLNTLKMAGNSFKDNTLSNVFANTTNLTFLDLSKCQLEQISWGVFDTLHRLQLLNMSHNNLLFLDSSHYNQLYSLSTLDCSFNRIETSKGILQHFPKSLAFFNLTNNSVACICEHQKFLQWVKEQKQFLVNVEQMTCATPVEMNTSLVLDFNNSTCYMYKTIISVSVVSVIVVSTVAFLIYHFYFHLILIAGCKKYSRGESIYDAFVIYSSQNEDWVRNELVKNLEEGVPRFHLCLHYRDFIPGVAIAANIIQEGFHKSRKVIVVVSRHFIQSRWCIFEYEIAQTWQFLSSRSGIIFIVLEKVEKSLLRQQVELYRLLSRNTYLEWEDNPLGRHIFWRRLKNALLDGKASNPEQTAEEEQETATWT
modifications: left off: small tags and cut ends
notes: flag-tagged full-length normal mouse Tlr4, residues 22–835, expressed in RAW 264.7 cells
leftward shift of the LPS EC50 curve (augmentation of the LPS response) ([9]; composite EC50 analysis): 30 fold | leftward shift of the LPS EC50 curve (augmentation of the LPS response) ([9]; composite EC50 analysis, listed as Tlr4): about 30 fold

B4: Tlr4^Lps-d: flag-tagged full-length mouse Tlr4 with P712H mutation, residues 22–835, expressed in RAW 264.7 cells (protein)
chain: B3 chain with P691H
modifications: left off: small tags and cut ends
notes: flag-tagged full-length mouse Tlr4 with P712H mutation, residues 22–835, expressed in RAW 264.7 cells
composite range of responsiveness (mean EC50 of Tlr4^Lps-d transfected clones/mean EC50 of Tlr4^Lps-n transfected clones) ([9]; LPS EC50 measured for each individual clone): 1120 fold | difference in the mean response at the EC50 point, Tlr4^Lps-n vs Tlr4^Lps-d over-expression ([9]; composite EC50 analysis): 74,000 fold | shift to the right of the LPS EC50 curve (suppression of the LPS response) ([9]; composite EC50 analysis, full-length protein in RAW 264.7, TNF production): 2600 fold

B5: Ectodomain: membrane-anchored truncated Tlr4, residues 22–660, lacking the entire cytoplasmic domain (protein)
chain: PGSLNPCIEVVPNITYQCMDQKLSKVPDDIPSSTKNIDLSFNPLKILKSYSFSNFSELQWLDLSRCEIETIEDKAWHGLHHLSNLILTGNPIQSFSPGSFSGLTSLENLVAVETKLASLESFPIGQLITLKKLNVAHNFIHSCKLPAYFSNLTNLVHVDLSYNYIQTITVNDLQFLRENPQVNLSLDMSLNPIDFIQDQAFQGIKLHELTLRGNFNSSNIMKTCLQNLAGLHVHRLILGEFKDERNLEIFEPSIMEGLCDVTIDEFRLTYTNDFSDDIVKFHCLANVSAMSLAGVSIKYLEDVPKHFKWQSLSIIRCQLKQFPTLDLPFLKSLTLTMNKGSISFKKVALPSLSYLDLSRNALSFSGCCSYSDLGTNSLRHLDLSFNGAIIMSANFMGLEELQHLDFQHSTLKRVTEFSAFLSLEKLLYLDISYTNTKIDFDGIFLGLTSLNTLKMAGNSFKDNTLSNVFANTTNLTFLDLSKCQLEQISWGVFDTLHRLQLLNMSHNNLLFLDSSHYNQLYSLSTLDCSFNRIETSKGILQHFPKSLAFFNLTNNSVACICEHQKFLQWVKEQKQFLVNVEQMTCATPVEMNTSLVLDFNNSTCYMYKTIISVSVVSVIVVSTVAFLIYHFYFHLILIA
modifications: left off: small tags and cut ends
notes: membrane-anchored truncated Tlr4, residues 22–660, lacking the entire cytoplasmic domain
effect on LPS signaling (in words) ([9]; listed as Tlr4 ectodomain): inhibited the LPS response only weakly, if at all; also recorded: fails to inhibit LPS signaling | effect on LPS signaling (in words) ([9]; listed as truncated version of the Tlr4 protein): only a weak inhibitory effect on LPS signaling
